Measured values published in patent US20120324600A1, “CONSTITUTIVE SYNTHETIC PLANT PROMOTERS AND METHODS OF USE” (SYNGENTA PARTICIPATIONS AG, priority 2010, published 2012).

B1: SEQ ID NO: 3: synthetic plant promoter, subelements eFMV, e35S, pr35SCMP, eTMV; 625 bp (nucleic acid)
DNA: AGCTGCTTGTGGGGACCAGACAAAAAAGGAATGGTGCAGAATTGTTAGGCGCACCTACCAAAAGCATCTTTGCCTTTATTGCAAAGATAAAGCAGATTCCTCTAGTACAAGTGGGGAACAAAATAACGTGGAAAAGAGCTGTCCTGACAGCCCACTCACTAATGCGTATGACGAACGCAGTGACGACCACAAAACTCGAGACTTTTCAACAAAGGGTAATATCCGGAAACCTCCTCGGATTCCATTGCCCAGCTATCTGTCACTTTATTGTGAAGATAGTGGAAAAGGAAGGTGGCTCCTACAAATGCCATCATTGCGATAAAGGAAAGGCTATCGTTGAAGATGCCTCTGCCGACAGTGGTCCCAAAGATGGACCCCCACCCACGAGGAGCATCGTGGAAAAAGAAGACGTTCCAACCACGTCTTCAAAGCAAGTGGATTGATGTGATATCTCCACTGACGTAAGGGATGACGAACAATCCCACTATCCTTCTGCAGGTCGACTCTAGAGGATCCTATAAATAGGAAGTTCATTTCATTTGGAGAGGAAACCTCGAGTATTTTTACAACAATTACCAACAACAACAAACAACAAACAACATTACAATTACTATTTACAATTACA
modifications: synthetic plant promoter
notes: synthetic plant promoter, subelements eFMV, e35S, pr35SCMP, eTMV; 625 bp
B2: SEQ ID NO: 5: synthetic plant promoter, subelements eFMV, e35S, iUBQ3, pr35SCMP, eTMV; 1017 bp (nucleic acid)
DNA: AGCTGCTTGTGGGGACCAGACAAAAAAGGAATGGTGCAGAATTGTTAGGCGCACCTACCAAAAGCATCTTTGCCTTTATTGCAAAGATAAAGCAGATTCCTCTAGTACAAGTGGGGAACAAAATAACGTGGAAAAGAGCTGTCCTGACAGCCCACTCACTAATGCGTATGACGAACGCAGTGACGACCACAAAACTCGAGACTTTTCAACAAAGGGTAATATCCGGAAACCTCCTCGGATTCCATTGCCCAGCTATCTGTCACTTTATTGTGAAGATAGTGGAAAAGGAAGGTGGCTCCTACAAATGCCATCATTGCGATAAAGGAAAGGCTATCGTTGAAGATGCCTCTGCCGACAGTGGTCCCAAAGATGGACCCCCACCCACGAGGAGCATCGTGGAAAAAGAAGACGTTCCAACCACGTCTTCAAAGCAAGTGGATTGATGTGATATCTCCACTGACGTAAGGGATGACGAACAATCCCACTATCCTTCTGCAGGTCGACTCTAGAGGATCTTATAAATAGGTATATTTTCTGATTCTTTTTGTTTTTGATTCGTATCTGATCTCCAATTTTTGTTATGTGGATTATTGAATCTTTTGTATAAATTGCTTTTGACAATATTGTTCGTTTCGTCAATCCAGCTTCTAAATTTTGTCCTGATTACTAAGATATCGATTCGTAGTGTTTACATCTGTGTAATTTCTTGCTTGATTGTGAAATTAGGATTTTCAAGGACGATCTATTCAATTTTTGTGTTTTCTTTGTTCGATTCTCTCTGTTTTAGGTTTCTTATGTTTAGATCCGTTTCTCTTTGGTGTTGTTTTGATTTCTCTTACGGCTTTTGATTTGGTATATGTTCGCTGATTGGTTTCTACTTGTTCTATTGTTTTATTTCAGGTGGATCCTATAAATAGGAAGTTCATTTCATTTGGAGAGGAAACCTCGAGTATTTTTACAACAATTACCAACAACAACAAACAACAAACAACATTACAATTACTATTTACAATTACA
modifications: synthetic plant promoter
notes: synthetic plant promoter, subelements eFMV, e35S, iUBQ3, pr35SCMP, eTMV; 1017 bp

Experiments:
Type in all cases: in vivo
maize = experiment: expression of a heterologous sequence in maize
Text: A similar strategy for building synthetic plant promoters for use in maize was implemented.

[1] = tested on: transgenic soybean events; experiment: tolerance to mesotrione herbicide spray of T1 transgenic soybean seedlings; details: sprayed at V2 stage, rated approximately 10 days post-application
Text: (§1) The first generation transgenic soybean events (T1) harboring SEQ ID NO: 3, SEQ ID NO: 4, SEQ ID NO: 5, SEQ ID NO: 6, or SEQ ID NO: 7 were characterized for segregation analysis, oat HPPD protein expression and tolerance to mesotrione herbicide spray. The green leaf tissues from the first trifoliate of five independent events were sampled to determine the segregation ratios (homozygous, heterozygous or null) of the individual seedlings as determined by zygosity Taqman® assays and oat HPPD protein expression by ELISA. At the V2 stage, the seedlings were sprayed with the HPPD inhibiting herbicide mesotrione and tolerance rating determined approximately 10 days post-application.

[2] = tested on: oat HPPD protein expression; experiment: oat HPPD protein expression by ELISA in T1 transgenic soybean events; details: inferred from ELISA and mesotrione tolerance of HOM vs HET siblings
Text: To express a synthetic oat (Avena sativa) 4-hydroxyphenylpyruvate dioxygenase (cAvHPPD) in stably transformed soybean, viral transcriptional and translational enhancers, and a minimal promoter were created by PCR or direct DNA synthesis and combined by standard DNA restriction digestion and ligation reactions. A synthetic plant promoter comprising defined components eFMV (SEQ ID NO: 1), eTMV (SEQ ID NO: 2), the Cauliflower Mosaic Virus 35S enhancer region (e35S) and a minimal promoter (pr35SCMP: Cestrum Yellow Leaf Curl virus TATA-box motif; no CAAT 35S-proximal promoter sequence) were combined to create SEQ ID NO: 3. Subsequently, SEQ ID NO: 3 was modified by digestion with a DNA restriction enzyme XhoI to remove defined components e35S, pr35SCMP (including the TATA-box motif) followed by a standard ligation reaction to create SEQ ID NO: 4. […] One skilled in the art would readily recognize other subelements which would be suitable to use.
The plasmids containing the synthetic plant promoter expression cassettes were transformed into soybean using Agrobacterium tumefaciens. […] Expression of cAvHPPD of surviving T0 plants was quantified by ELISA (Engvall E, Perlman P (1971). “Enzyme-linked immunosorbent assay (ELISA). Quantitative assay of immunoglobulin G”. Immunochemistry 8(9):871-874).
as §1

Row | Molecule | promotion of expression of a heterologous sequence in maize (maize) | tolerance to mesotrione herbicide spray [1] | transgene silencing in HOM plants [2]
1 | B1 | successfully used to promote the expression of a heterologous sequence in maize | significant initial damage to the homozygous (HOM) compared to the heterozygous (HET) siblings | indicative of transgene silencing
2 | B2 | – | improved tolerance to the HPPD inhibitor herbicide mesotrione | relieve transgene silencing
